The values below come from patent publication US20190359693A1.

Assay [1] concerns the target hemagglutinin (HA) of influenza B/Brisbane/60/08 (Victoria) (influenza B virus). In words: cell-based or functional assay.
Assay [2] concerns the target hemagglutinin (HA) of influenza A/Wisconsin/67/05 (H3N2) (influenza A virus). The experiment in a line: cell-based or functional assay.
In assay [3] the target is hemagglutinin (HA) of influenza B/Florida/04/06 (Yamagata) (influenza B virus). In words: cell-based or functional assay.
Assay [4] deals with HA of H3N2 A/Wisconsin/67/2005 (influenza A virus). The experiment in a line: cell-based or functional assay.
For assay [5], the target named is hemagglutinin (HA) of influenza virus H3N2 A/Wisconsin/67/05 (influenza A virus). The experiment in a line: cell-based or functional assay.
In assay [6] the target is HA of H1N1 A/New Caledonia/20/1999 (influenza A virus). The experiment in a line: cell-based or functional assay.
Assay [7] has as its target hemagglutinin (HA) of influenza A/New York/107/03 (PR8) (influenza A virus A/New York/107/03 (PR8)). The experiment in a line: cell-based or functional assay.
Assay [8] deals with hemagglutinin (HA) of influenza virus H1N1 A/Puerto Rico/8/34-MA (influenza A virus). In words: cell-based or functional assay.
Assay [9] deals with hemagglutinin (HA) of influenza A/waterfowl/Hong Kong/MPA892/06 (H4) (influenza A virus A/waterfowl/Hong Kong/MPA892/06 (H4)). In words: cell-based or functional assay.
Assay [10] concerns the target HA of H1N1 A/Brisbane/59/07 (influenza A virus). The experiment in a line: cell-based or functional assay.
Assay [11] deals with hemagglutinin (HA) of influenza virus H5N1 A/Vietnam/1194/04 (influenza A virus). In words: cell-based or functional assay.
Assay [12] concerns the target hemagglutinin (HA) of influenza A/chicken/Germany/n/49 (H10N7) (influenza A virus A/chicken/Germany/n/49 (H10N7)). The experiment in a line: cell-based or functional assay.
For assay [13], the target named is HA of B/Brisbane/60/2008 (Victoria) (influenza B virus). The experiment in a line: cell-based or functional assay.
Assay [14] has as its target HA of H3N2 A/Brisbane/10/2007 (influenza A virus). The experiment in a line: cell-based or functional assay.
Assay [15] addresses HA of B/Florida/04/2006 (Yamagata) (influenza B virus). In words: cell-based or functional assay.
For assay [16], the target named is hemagglutinin (HA) of influenza A/Brisbane/10/07 (H3N2) (influenza A virus A/Brisbane/10/07 (H3N2)). The experiment in a line: cell-based or functional assay.
Assay [17] concerns the target HA of H5N1 A/Vietnam/1194/04 (influenza A virus). In words: cell-based or functional assay.
The target of assay [18] is HA of H7N3 A/NIBRG/60 (A/mallard/NL/12/00) (influenza A virus). In words: cell-based or functional assay.
Assay [19] deals with hemagglutinin (HA) of influenza virus H1N1 A/California/07/09 (influenza A virus). The experiment in a line: cell-based or functional assay.
Assay [20] addresses HA of B/Brisbane/60/2008 (Victoria) (influenza B virus). In words: AlphaLISA competition vs SD1083. A general note: Alpha assays give light when donor and acceptor beads are brought close together.
The target in assay [21] is HA of B/Florida/04/2006 (Yamagata) (influenza B virus). In words: AlphaLISA competition vs SD1083.
Assay [22] addresses HA of B/Brisbane/60/2008 (Victoria) (influenza B virus). The experiment in a line: AlphaLISA competition vs SD1085.
Assay [23] deals with HA of B/Florida/04/2006 (Yamagata) (influenza B virus). The experiment in a line: AlphaLISA competition vs SD1085.
The target in assay [24] is HA of B/Brisbane/60/2008 (Victoria) (influenza B virus). In words: AlphaLISA competition vs SD1086.
For assay [25], the target named is HA of B/Florida/04/2006 (Yamagata) (influenza B virus). The experiment in a line: AlphaLISA competition vs SD1086.
For assay [26], the target named is HA of B/Brisbane/60/2008 (Victoria) (influenza B virus). In words: AlphaLISA competition vs SD1087.
In assay [27] the target is HA of B/Florida/04/2006 (Yamagata) (influenza B virus). The experiment in a line: AlphaLISA competition vs SD1087.
Assay [28] concerns the target HA of H3N2 A/Brisbane/10/2007 (influenza A virus). In words: AlphaLISA competition vs SD1036.
Assay [29] shares this target. In words: AlphaLISA competition vs 39.29.
In assay [30] the target is HA of H3N2 A/Wisconsin/67/2005 (influenza A virus). The experiment in a line: BLI steady state.
In assay [31] the target is HA of H1N1 A/New Caledonia/20/1999 (influenza A virus). The experiment in a line: BLI steady state.
The target in assay [32] is HA of H1N1 A/Brisbane/59/07 (influenza A virus). In words: BLI steady state.
The target in assay [33] is HA of H7N9 A/Hangzhou/1/2013 (influenza A virus). The experiment in a line: BLI steady state.
Assay [34] deals with HA of H3N2 A/Brisbane/10/2007 (influenza A virus). In words: BLI steady state.
Assay [35] has as its target HA of H7N3 A/NIBRG/60 (A/mallard/NL/12/00) (influenza A virus). In words: BLI steady state.
Assay [36] has as its target HA of H3N2 A/Wisconsin/67/2005 (influenza A virus). In words: AlphaLISA competition vs CR8057.
Assay [37] concerns the target HA of H3N2 A/Brisbane/10/2007 (influenza A virus). In words: AlphaLISA competition vs CR8057.
For assay [38] the target is unchanged. In words: AlphaLISA competition vs SD1038.
Assay [39] has as its target HA of H3N2 A/Wisconsin/67/2005 (influenza A virus). In words: AlphaLISA competition vs CR8020.
Assay [40] has as its target HA of H3N2 A/Brisbane/10/2007 (influenza A virus). In words: AlphaLISA competition vs CR8020.
Assay [41] has as its target HA of H3N2 A/Wisconsin/67/2005 (influenza A virus). In words: AlphaLISA competition vs CR9114.
In assay [42] the target is HA of H1N1 A/New Caledonia/20/1999 (influenza A virus). In words: AlphaLISA competition vs CR9114.
Assay [43] addresses HA of B/Brisbane/60/2008 (Victoria) (influenza B virus). The experiment in a line: AlphaLISA competition vs CR9114.
Assay [44] concerns the target HA of H3N2 A/Brisbane/10/2007 (influenza A virus). The experiment in a line: AlphaLISA competition vs CR9114.
Assay [45] addresses HA of H5N1 A/Vietnam/1203/2004 (influenza A virus). The experiment in a line: AlphaLISA competition vs CR9114.
For assay [46], the target named is HA of B/Brisbane/60/2008 (Victoria) (influenza B virus). The experiment in a line: AlphaLISA competition vs SD1084.
The target in assay [47] is HA of B/Florida/04/2006 (Yamagata) (influenza B virus). In words: AlphaLISA competition vs SD1084.

SD1036 (VHH), sequence (VHH): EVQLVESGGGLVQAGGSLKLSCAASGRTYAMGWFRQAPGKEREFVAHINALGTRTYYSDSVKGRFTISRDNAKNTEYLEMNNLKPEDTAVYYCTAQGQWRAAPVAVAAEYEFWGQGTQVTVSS

In the case of CR9114 (antibody), the ADCC induction (EC50 grade, FcγRIIIa reporter bioassay) in [1], in assay [2] and in [3] was less than 0.1 µg/mL in each case.

As for CR9114-LALA (antibody), the ADCC induction (EC50 grade, FcγRIIIa reporter bioassay) in assay [1], in assay [2] and in assay [3] was greater than 0.5 µg/mL throughout.

The term pIC50 denotes the negative decadic logarithm of the IC50, by convention in mol/L. For orientation: Kd means the free concentration of one partner at which half of the binding sites on the other are occupied at equilibrium, for simple one-to-one binding. Low values mean tighter binding, high ones weaker binding. Consider SD1036 (VHH), for which the VNA titer in [4] was greater than 1000 nM; in [6], greater than 1000 nM; in assay [10], greater than 1000 nM; in assay [13], greater than 1000 nM; in [14] it was 86.7 nM; in [15], greater than 1000 nM. Also, the VNA titer in assay [17] is greater than 1000 nM; in assay [18] it was 10.9 nM. For the same substance, the neutralization titer in [5], in assay [8], in assay [11] and in [19] was less than 1000 nM in each case. Also, the VNA IC50 is 11 nM in assay [7], 44 nM in assay [9], 10 nM in assay [12] and 59 nM in assay [16]. Moreover, the pIC50 in assay [20], in assay [21], in assay [22], in assay [23], in [24] and in assay [25] was less than 7 in each case. Besides, the pIC50 in assay [26] was less than 7; in assay [27] it was less than 7; in assay [28], 9.1; in assay [29], 9.2; in [36], less than 7; in assay [37] it was less than 7. Further, the pIC50 is 9.3 in assay [38]; 7.2 in assay [39]; 9.2 in assay [40]; 7.8 in [41]; less than 7 in assay [42]; less than 7 in assay [43]. Further, the pIC50 was 9.4 in assay [44], less than 7 in [45], less than 7 in assay [46] and less than 7 in assay [47]. Besides, the Kd in assay [30] was 122 nM; in assay [31], 230 nM; in [32] it was 290 nM; in assay [33], 3 nM; in assay [34], 10 nM; in [35], 2 nM.
